The source of these data is PMC7089426, “C8J_1298, a bifunctional thiol oxidoreductase of Campylobacter jejuni, affects Dsb (disulfide bond) network functioning” (PLoS ONE, 2020).

The data set deals with the molecule itself. The data set is described as follows: cross-linking; glutaraldehyde (0.0001-0.02% v/v), C8J_1298 at 1.8 mg/ml, room temperature, 20 min, 0.05 M bicine-NaOH pH 8.5, 0.1 mM DTT, 0.4 M NaCl; quenched with ethanolamine-HCl pH 8.0.

B1: C8J_1298, periplasmic dimeric thiol oxidoreductase of Campylobacter jejuni 81116 (recombinant, lacking the signal sequence, C-terminal His-Tag) (enzyme)
chain: ASNSEISDFYSKSIKAQFPNATVSVSNRQKVGNTGFESVIVSVELNGQKQENILFTKDSLITPDLIDLKTGISYAQEYEMKKFQEARENFTKNAKAVAQKETMVIALGDKNKPAIYVFSDPECPYCREHLAQIDDELKNYQVNYILTPVHGKSAFEKSALIYKEAKKAKNDKEKIAILNKYYDANIKNYPKVSDAELKEVFSLYEKYRSLGLSATPTIIK
One may read the stoichiometry N as the number of molecules, sites or subunits per partner or assembly. With B1, the “stoichiometry N” value turned out to be 2.
